The target in assay [1] is 9C2 (Vγ5Vδ1) γδ TCR/CD3 complex, full length (human) (UniProt B7Z8K6). Nature of the assay: cryo-EM structure.
The target of assay [2] is G115 (Vγ9Vδ2) γδ TCR/CD3 complex, full length (human) (UniProt A0JD36). Nature of the assay: cryo-EM structure.
Sequence of UniProt A0JD36 (A0JD36 whole entry, looked up, stated change not applied, one chain of several): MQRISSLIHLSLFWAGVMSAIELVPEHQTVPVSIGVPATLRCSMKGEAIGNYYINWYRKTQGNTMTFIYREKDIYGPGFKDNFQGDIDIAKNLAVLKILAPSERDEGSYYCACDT

Consider “9C2 (Vγ5Vδ1) γδ TCR/CD3 complex, full length (from UniProt B7Z8K6;P0CF51;P07766;P09693;P04234;P20963)”, for which the stoichiometry N in assay [1] came out at 2. OKT3 Fab yielded a stoichiometry N in assay [2] of 2.

(Values after doi:10.1101/2024.07.19.604350.)
